Assay results: patent publication US20230265179A1 (TWIST BIOSCIENCE, published 2023)
Numbering of substitutions follows the chain as printed. Values belong to the binder of their own block, whether it stands above or below them.

Key:
[1] = target: T1, IL1RL1 (UniProt Q01638 19-556, limits assumed); test: flow cytometry, 100 nM IgG on IL1RL1 over-expressing Expi293 cells; MFI over that of Expi293 parent cells
T1 construct: whole, on cells; The flow cytometry used 'cytokine over-expressing Expi293 cells' against Expi293 parent cells
T1 sequence (looked up): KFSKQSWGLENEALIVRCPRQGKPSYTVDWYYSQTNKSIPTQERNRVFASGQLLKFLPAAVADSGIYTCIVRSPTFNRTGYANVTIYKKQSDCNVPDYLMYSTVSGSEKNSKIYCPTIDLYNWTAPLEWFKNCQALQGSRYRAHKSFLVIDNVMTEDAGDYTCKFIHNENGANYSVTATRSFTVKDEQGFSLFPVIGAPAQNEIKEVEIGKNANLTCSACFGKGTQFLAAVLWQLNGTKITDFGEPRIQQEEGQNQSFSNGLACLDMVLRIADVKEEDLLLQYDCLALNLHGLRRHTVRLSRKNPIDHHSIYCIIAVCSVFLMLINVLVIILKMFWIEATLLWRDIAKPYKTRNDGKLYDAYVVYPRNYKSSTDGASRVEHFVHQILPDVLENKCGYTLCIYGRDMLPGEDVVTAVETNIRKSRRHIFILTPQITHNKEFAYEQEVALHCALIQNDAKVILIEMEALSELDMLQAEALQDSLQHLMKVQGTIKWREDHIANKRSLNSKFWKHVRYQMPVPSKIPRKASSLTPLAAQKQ
Protocol: (§1) All incubations and washes were in buffer containing PBS+1% BSA. MFI Ratio is defined by the mean fluorescence intensity (MFI) of the cytokine over-expressing Expi293 cell over the Expi293 parent cell. […] EC50 was calculated in GraphPad Prism.

[2] = target: T2, IL1RL1 (UniProt Q01638 19-328, limits assumed); test: SPR (Carterra LSA), antibody amine-coupled
T2 construct: SPR analyte
T2 sequence (looked up): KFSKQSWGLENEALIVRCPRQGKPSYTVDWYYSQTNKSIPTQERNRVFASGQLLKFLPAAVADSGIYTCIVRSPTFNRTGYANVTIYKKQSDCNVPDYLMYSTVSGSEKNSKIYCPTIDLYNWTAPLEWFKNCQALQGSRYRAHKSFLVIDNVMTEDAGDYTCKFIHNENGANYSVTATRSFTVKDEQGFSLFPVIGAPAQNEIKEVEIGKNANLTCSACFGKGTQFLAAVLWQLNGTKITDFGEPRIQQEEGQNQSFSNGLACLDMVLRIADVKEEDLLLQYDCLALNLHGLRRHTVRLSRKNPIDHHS
Protocol: SPR experiments were performed on a Carterra LSA SPR biosensor equipped with a HC30M chip at 25° C. in HBS-TE. Antibodies were diluted to 10 μg/mL and amine-coupled to the sensor chip by EDC/NHS activation, followed by ethanolamine HCl quenching. Increasing concentrations of analyte were flowed over the sensor chip in HBS-TE with 0.5 mg/mL BSA with 5-minute association and 15-minute dissociation. Following each injection cycle the surface was regenerated with 2× 30-second injections of IgG elution buffer (Thermo). Data were analyzed in Carterra's Kinetics Tool software with 1:1 binding model.

[3] = target: T3, IL1RL1 over-expressed on Expi293 cells (UniProt Q01638 19-556, limits assumed); test: flow cytometry, 100 nM antibody, over-expressing Expi293 / parent cells
T3 construct: whole, on cells; Target of the flow cytometry MFI ratio (over-expressing cells over parent cells); also called cytokine over-expressing Expi293 cells
T3 sequence (looked up): T1 sequence (looked up)
Protocol: as §1

binding result [2]: no binding
100 nM FACS (MFI Ratio) [3]: 1.28 MFI ratio
B6: IL1RL1-51 (Fc fusion, not shown: a dimerising Fc or GST)
VHH: EVQLVESGGGLVQPGGSLRLSCAASGVTLDLYAMGWFRQAPGKEREWVSSIGIAGTPTFYADSVKGRFTISADNSKNTAYLQMNSLKPEDTAVYYCAANYGGSVLYNWGQGTLVTVSS
notes: VHH-Fc on IgG2 Fc

binding result [2]: no binding
100 nM FACS (MFI Ratio) [3]: 0.86 MFI ratio
B7: IL1RL1-42 (Fc fusion, not shown: a dimerising Fc or GST)
VHH: EVQLVESGGGLVQPGGSLRLSCAASGFILDYYAMGWFRQAPGKEREWVSSIGIAGTPTFYADSVKGRFTISADNSKNTAYLQMNSLKPEDTAVYYCAGRLSNGLDWGQGTLVTVSS
notes: VHH-Fc on IgG2 Fc

binding result [2]: no binding
100 nM FACS (MFI Ratio) [3]: 1.25 MFI ratio
B10: IL1RL1-37 (Fc fusion, not shown: a dimerising Fc or GST)
VHH: EVQLVESGGGLVQPGGSLRLSCAASGGTFGSYAMGWFRQAPGKEREFVAAINWSGARTYYADSVKGRFTISADNSKNTAYLQMNSLKPEDTAVYYCAVSQPLNYYTYYDARRYDWGQGTLVTVSS
notes: VHH-Fc on IgG2 Fc

binding result [2]: no binding
100 nM FACS (MFI Ratio) [3]: 1.06 MFI ratio
B11: IL1RL1-48 (Fc fusion, not shown: a dimerising Fc or GST)
VHH: EVQLVESGGGLVQPGGSLRLSCAASGTTFSSDVMGWFRQAPGKERELVAVIIDSRTTKYADSVKGRFTISADNSKNTAYLQMNSLKPEDTAVYYCAAVGGATTVTASEWDWGQGTLVTVSS
notes: VHH-Fc on IgG2 Fc

binding result [2]: no binding
100 nM FACS (MFI Ratio) [3]: 1.12 MFI ratio
B12: IL1RL1-77 (Fc fusion, not shown: a dimerising Fc or GST)
VHH: B11 VHH with T27R, D32Y, L47F
notes: VHH-Fc on IgG2 Fc

binding result [2]: no binding
100 nM FACS (MFI Ratio) [3]: 1.25 MFI ratio
B13: IL1RL1-43 (Fc fusion, not shown: a dimerising Fc or GST)
VHH: EVQLVESGGGLVQPGGSLRLSCAASGRTYAMGWFRQAPGKEREWVASISTSGSTITPYADSVKGRFTISADNSKNTAYLQMNSLKPEDTAVYYCAANVASGLKILQWGQGTLVTVSS
notes: VHH-Fc on IgG2 Fc

Second part, the binder before the results:

B1: IL1RL1-375 (antibody, V domains shown)
VH: EVQLLESGGGLVQPGGSLRLSCAASGFAFSSYAMSWVRQAPGKGLELVSAISGSGDTSYYADSVKGRFTISRDNSKNTLYLQMNSLRAEDTAVYYCARVRRWSNFDYWGQGTLVTVSS
VL: DIQMTQSPSSLSASVGDRVTITCRASQSISRYLSWYQQKPGKAPKLLIYAGSKLQRGVPSRFSGSGSGTDFTLTISSLQPEDFATYYCQQTYSTPIAFGGGTKVEIK
100 nM FACS (MFI Ratio) [1]: 11.3 MFI ratio

B2: IL1RL1-380 (antibody, V domains shown)
VH: EVQLLESGGGLVQPGGPLRLSCAASGFSFSKFAMSWVRQAPGKGLEWVSGISGSGGNTYYADSVKGRFTISRDNSKNTLYLQMNSLRAEDTAVYYCVKGSRGSYRSSTLGPFKHWGQGTLVTVSS
VL: B1 VL with A25T, R31T, S34N, G51A, K53R, R56N, T91S, T94V, I96G, A97T
100 nM FACS (MFI Ratio) [1]: 0.6 MFI ratio

B3: IL1RL1-41 (Fc fusion, not shown: a dimerising Fc or GST)
VHH: EVQLVESGGGLVQPGGSLRLSCAASGGTLSSYIMGWFRQAPGKEREGVAAIDSDGSTSYADSVKGRFTISADNSKNTAYLQMNSLKPEDTAVYYCAARPVRVDDISLPVGFDWGQGTLVTVSS
notes: VHH-Fc on IgG2 Fc
binding result [2]: no binding
100 nM FACS (MFI Ratio) [3]: 0.55 MFI ratio

B4: IL1RL1-377 (antibody, V domains shown)
VH: EVQLLESGGGLVRPGGSLRLSCAASGFTFRNFAMSWVRQAPGKGLEWVSSISGSGDTTYYADSVKGRFTISRDNSKNTLYLQMNSLRAEDTAVYYCARHKRGRVAVAFPMDVWGQGTLVTVSS
VL: DIQMTQSPSSLSASVGDRVTITCRASQNIGRYLNWYQQKPGKAPKLLIYGASTLQRGVPSRFSGSGSGTDFTLTISSLQPEDFATYYCQQSYSAPTFGGGTKVEIK
100 nM FACS (MFI Ratio) [1]: 1.21 MFI ratio

B5: IL1RL1-387 (antibody, V domains shown)
VH: EVQLLESGGGLVQPGGSLRLSCAASGFTFNRYAMNWVRQAPGKGLEWVSTISASGGRTYYADSVKGRFTISRDNSKNTLYLQMNSLRAEDTAVYYCARGSLRLDTWGQGTLVTVSS
VL: B4 VL with G30A, R31S, T53R, R56S, Y92S, S93T, A94P, P95R
100 nM FACS (MFI Ratio) [1]: 1.06 MFI ratio

B8: IL1RL1-381 (antibody, V domains shown)
VH: EVQLLESGGGLVQPGGSLRLSCAASGFTSSNYAMTWVRQAPGKGLEWVSSIIGSGGGTYYADSVKGRFTISRDNSKNTLYLQMNSLRAEDTAVYYCARGIPRRKKGAGLFDYWGQGTLVTVSS
VL: DIQMTQSPSSLSASVGDRVTITCRASHSISSHLNWYQQKPGKAPKLLIYGASRLQRGVPSRFSGSGSGTDFTLTISSLQPEDFATYYCQQNYNTPFTFGGGTKVEIK
100 nM FACS (MFI Ratio) [1]: 0.85 MFI ratio

B9: IL1RL1-388 (antibody, V domains shown)
VH: EVQLLESGGGLVQPGGSLRLSCAASGFTFSRFAMSWVRQAPGKGLEWVSGISGSSGNTYYADSVKGRFTISRDNSKNTLYLQMNSLRAEDTAVYYCAREKRLPIRRRSGEPLGNYFDYWGQGTLVTVSS
VL: B8 VL with A25T, H27Q, S30R, S31K, H32Y, G50A, A51S, R56S, N93R
100 nM FACS (MFI Ratio) [1]: 0.73 MFI ratio

B14: IL1RL1-385 (antibody, V domains shown)
VH: EVQLLESGGGLVQPGGSLRLSCAASGFTFNTFAMSWVRQAPGKGLELVSAISGSGGNTYYVDSVKGRFTISRDNSKNTLYLQMNSLRAEDTAVYYCARLGSGSSSSIDYWGQGTLVTVSS
VL: DIQMTQSPSSLSASVGDRVTITCRASQYISTFLNWYQQKPGKAPKLLIYAASRLQDGVPSRFSGSGSGTDFTLTISSLQPEDFATYYCQQSYGSSWTFGGGTKVEIK
100 nM FACS (MFI Ratio) [1]: 7.61 MFI ratio
